# Measurements reported in paper PMC10786891, “Massively parallel profiling of RNA-targeting CRISPR-Cas13d”.
# Where a chain is given by its changes, count along the chain named. In names and notes the source's numbering stands.
# T1: EsCas13d, nuclease-dead (Eubacterium siraeum, UniProt B0MS50, R295A;H300A;R849A;H854A)
# T1 sequence: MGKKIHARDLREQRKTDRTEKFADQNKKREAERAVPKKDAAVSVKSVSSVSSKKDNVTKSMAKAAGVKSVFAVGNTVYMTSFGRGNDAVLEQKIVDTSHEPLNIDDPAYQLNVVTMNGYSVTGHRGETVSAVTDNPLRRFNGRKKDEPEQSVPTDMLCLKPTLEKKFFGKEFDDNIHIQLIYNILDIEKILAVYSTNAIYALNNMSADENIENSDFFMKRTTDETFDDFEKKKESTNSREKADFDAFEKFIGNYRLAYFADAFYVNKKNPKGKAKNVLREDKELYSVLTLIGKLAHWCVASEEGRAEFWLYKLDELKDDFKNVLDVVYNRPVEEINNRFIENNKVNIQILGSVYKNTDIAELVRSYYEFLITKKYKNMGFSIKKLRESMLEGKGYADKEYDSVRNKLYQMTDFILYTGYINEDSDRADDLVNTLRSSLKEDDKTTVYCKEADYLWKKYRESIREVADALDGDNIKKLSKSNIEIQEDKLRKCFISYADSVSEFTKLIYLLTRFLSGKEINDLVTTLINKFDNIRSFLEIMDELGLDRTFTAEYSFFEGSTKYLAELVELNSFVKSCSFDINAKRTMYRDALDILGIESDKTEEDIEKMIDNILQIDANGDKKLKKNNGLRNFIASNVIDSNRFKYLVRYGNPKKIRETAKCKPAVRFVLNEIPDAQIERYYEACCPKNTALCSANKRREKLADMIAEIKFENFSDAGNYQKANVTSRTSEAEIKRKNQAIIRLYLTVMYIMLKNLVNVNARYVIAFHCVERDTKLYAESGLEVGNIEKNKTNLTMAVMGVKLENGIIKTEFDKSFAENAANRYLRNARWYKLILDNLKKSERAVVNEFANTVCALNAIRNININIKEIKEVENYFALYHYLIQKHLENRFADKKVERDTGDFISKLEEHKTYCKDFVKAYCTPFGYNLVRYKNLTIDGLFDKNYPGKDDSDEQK
# B1: target 1 U19C,C22A (mixed)
# RNA 1: CACCCGUGCAAAAAUGCAGGGGUCUAAAACUGAGCGGAUAACCUCUCUAUGG
# RNA 2: GGGAAUGGAUCCACAUCUACGAAUUCGUAACACAGAGAGGUUAUCCGCUCACCGAGAUCGGAAGAGCACACGU
# B2: target 1 C7U,A16U (mixed)
# RNA 1: B1 RNA 1
# RNA 2: B1 RNA 2 with A30C, C33U, A36U, C45U
# B3: target 1 G17A,C21U (mixed)
# RNA 1: B1 RNA 1
# RNA 2: B1 RNA 2 with A30C, C31U, C33U, G35A
# B4: target 1 insG 3' of 14,insG 3' of 1 (mixed)
# RNA 1: B1 RNA 1
# RNA 2: GGGAAUGGAUCCACAUCUACGAAUUCGUACCAUAGAGAGGGUUAUCCGCUCAGCCGAGAUCGGAAGAGCACACGU
# B5: target 1 U8G,C22G (mixed)
# RNA 1: B1 RNA 1
# RNA 2: B1 RNA 2 with A30G, C33U, U44G
# B6: target 1 insA 3' of 19,insG 3' of 10 (mixed)
# RNA 1: B1 RNA 1
# RNA 2: GGGAAUGGAUCCACAUCUACGAAUUCGUACCAUAAGAGAGGUUGAUCCGCUCACCGAGAUCGGAAGAGCACACGU
# B7: target 1 insA 3' of 17,insA 3' of 17 (mixed)
# RNA 1: B1 RNA 1
# RNA 2: B6 RNA 2 with A35G, G36A, G38A, A39G, G40A, U42G, G44U
# B8: target 1 insC 3' of 15,insU 3' of 4 (mixed)
# RNA 1: B1 RNA 1
# RNA 2: B4 RNA 2 with A38C, G39A, C51U, A52C, G53A
# B9: target 1 insC 3' of 15,insU 3' of 2 (mixed)
# RNA 1: B1 RNA 1
# RNA 2: B4 RNA 2 with A38C, G39A, A52U, G53A
# B10: target 1 insG 3' of 11,insC 3' of 11 (mixed)
# RNA 1: B1 RNA 1
# RNA 2: B6 RNA 2 with A35G, G36A, A37G, G38A, A39G, G41U, U42G, U43C, G44U
# B11: target 1 insG 3' of 19,insU 3' of 15 (mixed)
# RNA 1: B1 RNA 1
# RNA 2: B6 RNA 2 with A34G, A39U, G40A, U42G, G44U
# B12: target 1 insC 3' of 15,insA 3' of 3 (mixed)
# RNA 1: B1 RNA 1
# RNA 2: B4 RNA 2 with A38C, G39A, C51A, A52C, G53A
# B13: target 1 insA 3' of 21,insC 3' of 12 (mixed)
# RNA 1: B1 RNA 1
# RNA 2: B6 RNA 2 with U33A, A34U, U42C, G44U
# B14: target 1 C2U,A16U (mixed)
# RNA 1: B1 RNA 1
# RNA 2: B1 RNA 2 with A30C, C33U, A36U, C50U
# B15: target 1 G13U,A16G (mixed)
# RNA 1: B1 RNA 1
# RNA 2: B1 RNA 2 with A30C, C33U, A36G, G39U
# B16: target 1 insG 3' of 21,insU 3' of 12 (mixed)
# RNA 1: B1 RNA 1
# RNA 2: B6 RNA 2 with A32G, U33A, A34U, G44U
# B17: target 1 A18U,A20G (mixed)
# RNA 1: B1 RNA 1
# RNA 2: B1 RNA 2 with A30C, A32G, C33U, A34U
# B18: target 1 insC 3' of 22,insC 3' of 22 (mixed)
# RNA 1: B1 RNA 1
# RNA 2: GGGAAUGGAUCCACAUCUACGAAUUCGUACCCCAUAGAGAGGUUAUCCGCUCACCGAGAUCGGAAGAGCACACGU
# B19: target 1 insC 3' of 5,insG 3' of 3 (mixed)
# RNA 1: B1 RNA 1
# RNA 2: B4 RNA 2 with G41U, U43A, A44U, U45C, C47G, G48C, C51G, A52C, G53A
# B20: target 1 U3A,U19C (mixed)
# RNA 1: B1 RNA 1
# RNA 2: B1 RNA 2 with A30C, U49A
# B21: target 1 insG 3' of 11,insC 3' of 1 (mixed)
# RNA 1: B1 RNA 1
# RNA 2: B4 RNA 2 with G41U, U42G, G53C
# B22: target 1 C7A,G12U (mixed)
# RNA 1: B1 RNA 1
# RNA 2: B1 RNA 2 with A30C, C33U, G40U, C45A
# B23: target 1 insG 3' of 9,insA 3' of 7 (mixed)
# RNA 1: B1 RNA 1
# RNA 2: GGGAAUGGAUCCACAUCUACGAAUUCGUACCAUAGAGAGGUUAGUCACGCUCACCGAGAUCGGAAGAGCACACGU
# B24: target 1 insG 3' of 11,insG 3' of 1 (mixed)
# RNA 1: B1 RNA 1
# RNA 2: B4 RNA 2 with G41U, U42G
# B25: target 1 insC 3' of 19,insG 3' of 19 (mixed)
# RNA 1: B1 RNA 1
# RNA 2: B18 RNA 2 with C32A, C33U, A34C, U35G
# B26: target 1 del11,del16 (mixed)
# RNA 1: B1 RNA 1
# RNA 2: GGGAAUGGAUCCACAUCUACGAAUUCGUACCAUAGGAGGUAUCCGCUCACCGAGAUCGGAAGAGCACACGU
# B27: target 1 insG 3' of 14,insU 3' of 1 (mixed)
# RNA 1: B1 RNA 1
# RNA 2: B4 RNA 2 with G53U
# B28: target 1 insG 3' of 11,insU 3' of 1 (mixed)
# RNA 1: B1 RNA 1
# RNA 2: B4 RNA 2 with G41U, U42G, G53U
# B29: target 1 insU 3' of 22,insU 3' of 6 (mixed)
# RNA 1: B1 RNA 1
# RNA 2: B6 RNA 2 with C31U, A32C, U33A, A34U, G44A, A45U, U46C, C48U
# B30: target 1 insC 3' of 15,insC 3' of 9 (mixed)
# RNA 1: B1 RNA 1
# RNA 2: B6 RNA 2 with A35G, G36A, A37G, G38C, G44A, A45C
# B31: target 1 insG 3' of 11,insA 3' of 2 (mixed)
# RNA 1: B1 RNA 1
# RNA 2: B4 RNA 2 with G41U, U42G, G53A
# B32: target 1 del1,del2 (mixed)
# RNA 1: B1 RNA 1
# RNA 2: GGGAAUGGAUCCACAUCUACGAAUUCGUACCAUAGAGAGGUUAUCCGCUCCGAGAUCGGAAGAGCACACGU
# B33: target 1 U8G,G13U (mixed)
# RNA 1: B1 RNA 1
# RNA 2: B1 RNA 2 with A30C, C33U, G39U, U44G
# B34: target 1 C4G,C6A (mixed)
# RNA 1: B1 RNA 1
# RNA 2: B1 RNA 2 with A30C, C33U, C46A, C48G
# Target: T1, EsCas13d, nuclease-dead
# Test: crRNA (strand 1, pre-loaded); Mg2+; 40 mM Tris-HCl pH 7.5, 150 mM NaCl, 6 mM MgCl2, 1 mM DTT, 0.1% Tween-20, 0.2 mg/ml BSA; 25 C; 10 min per concentration, then washed
# Details: tags: His6-TwinStrep-SUMO cleaved; N-terminal SNAP kept (SNAP-Surface 488); label: 3' end held by stalled T7 RNA polymerase
row,Binder,Kd
1,B1,43 ± 5 nM
2,B2,46 ± 7 nM
3,B3,8.1 ± 0.5 nM
4,B4,11.3 ± 0.7 nM
5,B5,43 ± 11 nM
6,B6,68 ± 28 nM
7,B7,10.8 ± 0.6 nM
8,B8,14.3 ± 0.6 nM
9,B9,20.5 ± 1.8 nM
10,B10,18 ± 1.7 nM
11,B11,60 ± 9 nM
12,B12,13 ± 0.8 nM
13,B13,~44 nM
14,B14,56 ± 11 nM
15,B15,100 ± 50 nM
16,B16,64 ± 13 nM
17,B17,93 ± 30 nM

row,Binder,Kd
1,B18,17.4 ± 0.7 nM
2,B19,24.9 ± 2.3 nM
3,B20,24.2 ± 2.6 nM
4,B21,35 ± 6 nM
5,B22,15.3 ± 1.5 nM
6,B23,12.2 ± 0.6 nM
7,B24,34 ± 4 nM
8,B25,73 ± 6 nM
9,B26,68 ± 11 nM
10,B27,12.3 ± 1.2 nM
11,B28,56 ± 10 nM
12,B29,38 ± 7 nM
13,B30,20 ± 1.7 nM
14,B31,49 ± 6 nM
15,B32,15.6 ± 0.9 nM
16,B33,38 ± 8 nM
17,B34,6.7 ± 0.4 nM
